Assay results as given in the supplement of paper PMC10567573.

B1: ESRRA (parent)
chain: SLPLQDELAFAEDLVLDEEGARAA
B2: KLHDC10 (parent)
chain: CPIIRIPNRFLRGHRPPPARSGHR

Variants of: B1
Assay: protein stability index of a GFP-peptide fusion (GPS, HEK-293T) (PSI 1-6); higher = more stable
Settings: c terminus: a fixed tail appended
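Note: lentivirally expressed fusions sorted by FACS into six bins by GFP to DsRed ratio, PSI derived from sequencing read proportions per bin multiplied by bin number.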

Protein stability index of substitutions, site by site:
A21: M 3.61 | V 3.14 | T 3.75 | Y 2.63 | I 2.87 | S 4.05 | G 2.77 | D 3.81 | E 3.38 | C 3.01 | W 3.2 | L 3.63 | P 3.14 | K 2.66 | Q 2.29 | H 3.09 | F 3.5 | R 3.41 | N 2.91
A24: L 2.75 | Q 3.05 | Y 3 | C 2.94 | E 3.5 | P 3.21 | T 3.94 | F 2.14 | K 2.96 | V 3.06 | H 3.66 | G 3.22 | I 2.92 | W 2.74 | S 2.82 | R 2.8 | D 3.71 | M 2.97 | N 2.28
A23: M 2.43 | D 3.39 | S 3.42 | Y 2.62 | G 4.15 | F 2.89 | I 2.87 | W 2.44 | V 3.21 | L 2.56 | K 2.65 | N 3.21 | T 3.08 | E 3.66 | R 2.83 | H 2.95 | Q 3.19 | C 2.98 | P 3.35
R22: G 3.13 | I 2.94 | M 3.42 | Q 3.45 | V 3.69 | L 3.73 | H 3.65 | D 4.19 | K 3.12 | S 3.62 | A 3.35 | Y 3.01 | E 4.36 | F 3.24 | N 3.36 | W 2.53 | C 3.2 | T 4.45 | P 3.01
G20: Y 2.44 | R 3.38 | S 4.04 | W 2.67 | T 4.05 | V 4 | Q 3.93

Variants of: B2
Assay: as above
Settings: c terminus: a fixed tail appended

Protein stability index of substitutions, site by site:
I4: A 2.7 | C 2.31 | D 4.49 | Q 3.94 | M 1.86 | W 3.12 | K 3.06 | Y 3.02 | L 2.4 | F 2.46 | G 3.77 | S 3.22 | T 3.23 | N 4.38 | V 2.42 | R 4.37 | E 4.56 | P 4.21
R5: Y 2.51 | W 2.73 | L 1.55 | G 3.42 | M 1.6 | H 3.85 | Q 3.54 | T 3.81 | F 2.62 | V 2.6 | N 4.4 | K 3.59 | D 4.21 | E 5.03 | A 3.57 | I 2.81 | P 3.89
C1: W 1.59 | F 2.15 | Q 4.42 | N 3.73 | L 2.68 | H 2.91 | A 4.28 | M 3.21 | E 3.76 | D 2.89 | K 3.56 | T 3.29 | R 3.57 | P 3.87 | S 3.41 | Y 1.97 | I 3.59
I3: V 1.71 | A 1.56 | H 2.16 | Y 1.6 | S 2.56 | K 2.81 | L 2.15 | D 2.16 | E 3.25 | R 2.62 | N 3.74 | C 1.78 | P 4.2 | M 2.09 | T 2.36 | F 1.47
P2: D 2.32 | A 3.75 | I 2.6 | G 2.41 | S 1.31
I6: G 3.96 | K 3.37 | H 4.75 | N 4.01 | M 2.64 | L 4.07 | E 3.98 | D 4.25 | C 2.4 | F 4.26 | A 3.29
